These results are taken from patent JP2023014062A (dated 2023).

Experiment [1] has as its target T1, B.1.1.7変異株(アルファ株又は英国株)のSタンパク質のRBDタンパク質 (SARS-CoV-2 B.1.1.7変異株, UniProt P0DTC2 322-536).
T1 construct: range 322-536
Kind of experiment: ELISA, RBD coated at 2 μg/ml, Expi293 culture supernatant, HRP anti-human IgG.

In experiment [2] the target is T2, B.1.351変異株(ベータ株又は南ア株)のSタンパク質のRBDタンパク質 (SARS-CoV-2 B.1.351変異株, UniProt P0DTC2 322-536).
T2 construct: range 322-536
Described as above.

B1: 抗体NCV2SG53 (antibody, V domains shown)
VH: QVQMVESGGGLVRPGGSLRLSCAASGFTFSDYYMSWIRQAPGKGLEWISYISSSGSSMNYADSVKGRFTISRDNAKNSLFLQMNSLRAEDTAVYYCAREFDLTKIIMVPPYWGQGTLVTVSS
VL: AIQLTQSPSSLSASVGDRVTITCRASQGISSYLAWYQQKPGKAPKVLIYAASTLQSGVPSRFSGSGSGTDFTLTISSLQPEDFATYYCQQLKSYPLTFGGGTKVEIT
For the molecule B1, the binding result in experiment [1] and in experiment [2] was “binds” throughout.
